Results from US11013783B2, “Anti-inflammatory peptides and methods for treating inflammatory diseases” (INSTITUT NATIONAL DE LA RECHERCHE AGRONOMIQUE (INRA), priority 2012, dated 2021).

How the values were obtained:
[1] = system: IL-8 production by HT29-MTX cells stimulated by TNFα; experiment: IL-8 production of HT29-MTX cells incubated with peptides and stimulated by TNFα; type: cell-based; conditions: FIG. 4
Procedure: The inventors then incubated mucus secreting intestinal epithelial HT29-MTX cells with two peptide fragments obtained from the protein ZP05614546.1.
The inventors measured the IL-8 production (as a marker of inflammation) after stimulation of HT29-MTX cells incubated or not with said peptides and stimulated by TNFα.

NFκB signaling pathway = experiment: NFκB luciferase reporter system in HEK 293T cells transfected with pCMV plasmids (Carma-1-dependent activation); type: cell-based, human; conditions: for NFκB signaling pathway inhibition (%): HEK 293T NFκB reporter, proteins cloned in 3× Flag (C-term) pCMV vector, table I
Source text: In order to further analyze the activity of the polypeptides of the invention, the inventors decided to transfect the protein-coding cDNA directly into mammalian epithelial cell model.
The sequence of the protein ZP05614546.1 (SEQ ID NO: 2) has been cloned in 3× Flag (C-term) pCMV vector.
In order to test the NFκB signaling pathway inhibiting activity from the orthologs of ZP05614546.1, the other protein sequences from FIG. 3 were also cloned in 3× Flag (C-term) pCMV vector and tested in the NFκB reporter system in human epithelial cells HEK 293T.
So as to better quantify the anti-inflammatory properties of ZP05614546.1 and orthologs, increasing quantity of pCMV plasmid (i.e. 50, 25 and 12.5 ng) containing SEQ ID NO: 2 and SEQ ID NO: 4 were used to transfected HEK293 cell line. Then, the evolution of NFκB signaling pathway expression was determined as previously. […] Accordingly, the SEQ ID NO: 4 from the strain M21/2 is 100% (2 fold) more efficient in inhibiting NFκB signaling pathway than the protein ZP05614546.1.
In order to further analyze the activity of the polypeptides of the invention, the inventors decided to clone into the previously described pCMV plasmid, the sequences corresponding to amino acids 23-135 of SEQ ID NO: 2 (Mut 1), 1-39/72-135 of SEQ ID NO: 2 (Mut 2), 1-99 of SEQ ID NO: 2 (Mut 3), 35-77 of SEQ ID NO: 2 (p35-′7′7) and . . . - . . . of SEQ ID NO: 2 from MAM from F. prausnitzii strain A2-165. The four constructs, Mut 1, Mut 3, p35-77 and p49-70 carry the peptide 1-5.

colonic inflammation = experiment: Colonic inflammation model in mice treated daily orally with L. lactis expressing the protein; type: in vivo, C57B16 mice; conditions: M21/2 data not shown
Procedure: C57B16 mice (6-8 weeks old) are kept at room temperature, under 12 h light/dark cycles and having free access to food and water, except the day before the induction of colitis, where they are fasted for 12 h.
Colonic inflammation is induced by treatments with Dextran Sodium Sulfate […]. In details, DSS is dissolved in drinking water (3 or 5% wt/vol) and the animals are free to drink this solution for 7-days. Water consumption is measured in the DSS-treated groups and compared to groups of naïve mice drinking water: no difference is observed for the volume of liquid consumed, between water and DSS-drinking mice. Mice are treated daily orally, with 200 μL of 1 to 5.10^9 colony forming units (cfu) of strains to be tested or bacterial milieu alone—i.e. L. lactis expressing the protein ZP 05614546.1 (Accession number changed to WP_005932151), its ortholog of strain M21/2 (SEQ ID NO: 4) or no protein-. […] Body weight and survival rate are measured daily after the induction of colitis (or right after the first gavage, in case of preventive treatment). DAI (disease activity index is also measured):
On day 7 after adding DSS to their drinking water, mice are sacrificed and colons are harvested for measure of several parameters of inflammation: bowel thickness and length, myeloperoxydase (MPO) activity, cytokine expression (IL-17A, IFN-γ, IL10, IL12p70 or other cytokines) can be measured. […]

[2] = system: LPS-dependent NFκB activation; experiment: LPS-dependent NFκB activation in HEK293T cells stably expressing TLR4, MD2 and CD14, NFκB luciferase reporter; type: cell-based; conditions: FIG. 2

K G N T F L Q S T I N R T I G V L (KGNTFLQSTINRTIGVL; listed as Faecalibacterium prausnitzii) [SEQ ID NO: 47, peptide fragment of ZP05614546.1, region between positions 53 and 68]
anti-inflammatory effect (IL-8 production as a marker of inflammation) [1]: anti-inflammatory effect in a dose dependent manner

VKGNPIEKNNFGDYAMNALGIAAAVYNLGVAPTKNTVKETEVKFTV (VKGNPIEKNNFGDYAMNALGIAAAVYNLGVAPTKNTVKETEVKFTV; listed as Faecalibacterium prausnitzii) [SEQ ID NO: 48, peptide fragment of ZP05614546.1, region between positions 90 and 135]
anti-inflammatory effect (IL-8 production as a marker of inflammation) [1]: anti-inflammatory effect in a dose dependent manner

B1: M21/2: ortholog of ZP05614546.1 from strain M21/2 (protein, listed as Faecalibacterium prausnitzii)
chain: MMMPANFSAVSENEMTYVMGGSVADYLAPAMGAAQWQNFHKNLITIVGNKYVQGFLDNTVGAMFSGTWTPGDGLTGFGGQFSTIWKKNYTDNVTDESTGAQKFGYGALGVVNSILNVAGNLAAIYNLGFGTAKNIVGEGVYKA
efficiency in inhibiting NFκB signaling pathway relative to protein ZP05614546.1 (NFκB signaling pathway; 50, 25 and 12.5 ng pCMV plasmid, Carma-1-dependant NF-kB activation, HEK293T, FIG. 9): 2 fold
NFκB signaling pathway inhibition (%) (NFκB signaling pathway): 90 ± 3%
reduction of colonic inflammation (colonic inflammation): upper than the one observed with ZP 05614546.1 protein

B2: CNCM4573: ortholog of ZP05614546.1 from strain CNCM-4573 (protein, listed as Faecalibacterium prausnitzii)
chain: MMMPANFSAVSENEMTYVMGGSIADYLAPAMGAAQWQNFHKNLVTIVGNKYVQGFLDNTVGAVFSGTWTPGVGLTGFGGQFSTIWKKNYTDNVTDESTGAQKFGYGALGVVNSILNVAGNLAAIYNLGFGTAKNIVGEGVYKA
NFκB signaling pathway inhibition (%) (NFκB signaling pathway): 89 ± 2%

B3: SL3/3: ortholog of ZP05614546.1 from strain SL3/3 (protein, listed as Faecalibacterium prausnitzii)
chain: MMMPANFSAVSENEMTYVMGGSVADYLAPAMGAAQWQNFHKNLITIVGNKYVQGFLDNTVGAVFSGTWTPGDGLTGFGGQFSKIWKDNYTDNVTGESTGAQKFGYGALGVVNSILNVAGNLAAIYNLGFGTAKNIVGEGVYKA
NFκB signaling pathway inhibition (%) (NFκB signaling pathway): 86 ± 5%

B4: KLE1255: ortholog of ZP05614546.1 from strain KLE1255 (protein, listed as Faecalibacterium prausnitzii)
chain: MMMPANFSAVAENEMTYVVGGSLVDVLAPAMTTANWQNVSANVIKIVGNSFLAKYTNDVLAQLFDGNYVPGDVIGYSVKNLDKAYNKGYGTFGGNWGFAVGALNAGMQILGGLSAIYTLGSSSIGLETKSGTLPTL
NFκB signaling pathway inhibition (%) (NFκB signaling pathway): 72 ± 1%

B5: ZP05614546.1: conserved hypothetical protein of F. prausnitzii strain A2-165 (protein, listed as Faecalibacterium prausnitzii)
chain: MMMPANYSVIAENEMTYVNGGANFIDAIGAVTAPIWTLDNVKTFNTNIVTLVGNTFLQSTINRTIGVLFSGNTTWKEVGNIGKNLFGTNVKGNPIEKNNFGDYAMNALGIAAAVYNLGVAPTKNTVKETEVKFTV
NFκB signaling pathway inhibition (%) (NFκB signaling pathway): 58 ± 6%
inhibition of Carma-1-dependent NFκB activation (NFκB signaling pathway; HEK293T cells, NFκB luciferase reporter, FIG. 1): inhibits Carma-1-dependent NFκB activation
inhibition of NFκB signaling pathway (NFκB signaling pathway; NFκB reporter system in human epithelial cells HEK 293T, protein cDNA transfected in pCMV vector): inhibits the NFκB signaling pathway in a dose-dependent manner
inhibition of LPS-dependent NFκB activation [2]: inhibits the LPS-dependent NFκB activation
reduction of colonic inflammation (colonic inflammation): significantly reduce colonic inflammation

B6: L2-62: ortholog of ZP05614546.1 from strain L2-62 (protein, listed as Faecalibacterium prausnitzii)
chain: MMMPANFSAVNAEVVYGGAVADYLPSAWTAESVKRFNSNIITLVSNSFTSHLLKATLGTMFSGSWGSDGVTLFGDNGTFSGLYNVNRLPGGEAQTFGNKIMTTLGLASVVYTLGMKDAAVLTAKKVTNSNGQVWGDLPNNGGSGWVG
NFκB signaling pathway inhibition (%) (NFκB signaling pathway): 34 ± 5%
